Experimental data as given in the DeepSol protein solubility set.

Experiment: soluble on expression in E. coli; label from the status in PepcDB or PDB records
In the case of “MSLTPYEPFRHLDQMRREFDRFFPDFPIDLPNRHLTLSPKMDVHETDHEVILECDIPGLESKEDLQIDVEPRSVRIEGRIKRSKEVHDERFYRREREIGHFRRVVPLPAEVAEDDIRAAYRNGVLEVRMRKRLDDRRRTIDVEFHLEHHHHHH”, the “soluble on expression in E. coli” value is reported as “soluble”.
In the case of “MSLTRIVLPGGAGLVGQNLVARLKARGYTNLVVLDKHEANLDVLRSVHPDITAVFADLAEPGDWARHFEGADVVVMLQAQIGAPTREPFVRNNIDSTRCVLEVIKQHAIPYTVHISSSVVKSVGEDWYTETKREQEAIVLASGIGCVVLRPTLMFGWFDRKHLGWLSRFMQRVPVFPIPGSGRYMRQPLYVGDFCNVIISCIDSRIQGQTFDITGLERIDYIDIIRQIKRVTRARCAIVRIPYGLFHILLKVYALFSKNPPFTADQLKALTAGDEFDVIDWERIFAIRATPFAQAMEETFNDPTYSHIALEEGHHHHHH”, the “soluble on expression in E. coli” value is reported as “soluble”.
For “MSLTTAHNIDLPTVLAERLTTAHPDVLRELLATFIHTLMGAEADALCGAGYGERSTERTNSRNGYRHRQFDTRAGSLDLAIPKLRHGSYFPDWLLERRKRAERALTTVVATCYLLGVSTRRMDKLVETLGITSLSKSQVSVMAKELDAAVEAFRTRPLDAGPYTFVAADALVLKVREGGRVVNVHALIAVGVNAEGHREILGIDVSTAEDGAGWLTFWRSLTARGLSGVKLVTSDAHAGLVAAIGATLPGAAWQRCRTHYTTNLMAVTPKSSWPWVRTLLHSVFDQPDAESVAAQYDRIIEALADKLPKVADHLEEARADLLAFTAFPKQIWRQIWSNNPLSVNRPSGDTVQAAAEGHHHHHH”, the “soluble on expression in E. coli” value was “soluble”.
In the case of “MSLTTALAPGAADALLFDLGRVVIDYDLRRTLKAWAVELGSDPHALMAKLAQNDTFHRYETGHVTDAEFFAAVRTALGLTLTDAQLREGWNAIFIGEMPGIAPLLDRAAKQLPLYALSNTNDSHIAHFSEHYAELLVHFRELFLSSRIGMRKPNGETYDFVVKAIGIAPQRIVFFDDLAENVEAARERGLYAVQVHSSDDVARTLDQLGLEGHHHHHH”, the “soluble on expression in E. coli” value is reported as “soluble”.
For “MSLTTIRVFDTTLRDGEQMPGVSLPLEYKIRIAKQLDKLGVDVIEAGFPSATKGEFESVKEISSLSLNAEICGLARIVKEDIDAAINANVDMVHIFVPTSRIQIEHTVKMSKEEIIEKSVECVEYIKSHGVKCMFSAMDATRTEVEYLKQIFKAVENAKVDIVNVPDTVGVATPFKFYELIKQLREHLKVPIDVHCHNDFGLAVANTYAAVMAGANEVQVTVNGIGERAGNADLAQVVMILHAIEGIKTNIKTEHLFETSKLVERLTGVKMPPNHPIVGENAFSHESGIHAHGVLKEYSEGHHHHHH”, the “soluble on expression in E. coli” value was “soluble”.
For “MSLTTLVNLTPTKEQRKYQEDELIAFLDLQMNTFTANSENNDEAPSLLKKETSFNTDIWIENLFKFGFKKVILTAKLNNGICLWQSNCSKVNINTFSLENNYDDLVKKVSKSCKKFGLKFGIHLTLKDYLTLNLTPEEYDNYYTSQLKELMTNYSQISEVIMDMTSLDEYYDSLDFERYFKVVKEINPKCMISSPIGPDVRWTYYSDIESSKNYFYSSINLDLLKEDFNNEEIRKGNIYGDTWIVGESIYSLSDCLNHNKDSLSNLKHVYNNSLGRNTNLVLVLSPNTDGLLNHNELSLLSDFSKYIKETFSNNLIKGSSILATNSSSSDSYNLIDDYKKSYWIANENAVNPYIEIDFKTITEFNILEIREWIAEGQNVEEFKVYAYNNGWFELYNGTSIGYRHIAKLNNIKTDKIKISFTKYKNPPMINHIGAYLGEGHHHHHH”, the “soluble on expression in E. coli” value was “soluble”.
In the case of “MSLTTMVPTVMNTPTRIEAGRQKFLIFDAPSQENLPAYIEEMRAYEVTDLVRTCERTYDDKTVLASGIRPHELIFPDGEAPPDDVIDEWLTLCNAVSQQRGAIAIHCVAGLGRAPVLVAIALIEKGMDPMDAIMFIRERRKGAINRRQLQFLKGYKRRSNYKEGHHHHHH”, the “soluble on expression in E. coli” value is reported as “soluble”.
In the case of “MSLTTVRMTIPDDFILGAAASAWQTEGWSGKKPGQDSWPDLWYKNDRHVWHNGYGPAVATDFINRFQEDVQLMKLAGLTHYRTSINWSRFLTDYENVTVDEEYAAYYDQLFDALLANGITPMICLEHYELPGYLLEKYGGWGSKTVVELFVRYAEKVFARYHPKVTRWFTFNEPIVVQTRVYLDALRWPYEQNTSTWMQWNYHKVLATASVVKRFRELGYPGTIGCILNPEVTYPRSRAPHDLRAAEIYDLFYNRMFLDPLVHGVWPPELLALLEQHQVTWETSEEDLAVIREHTVDELGINLYYPHRVKAPSRAWHPHTPFHPAWYYEPFELPGRRMNASRGWEIYPQIIFDMAMRIKNDYRNIPWFVAESGMGVENEGQFRNREGVIDDSYRIRFISEHLWHTLRAREAGANCQGYMLWAFTDNVSPMNAFKNRYGLIEIDLQNHRARRAKASAHWFRQLGERRELVLDEGHHHHHH”, the “soluble on expression in E. coli” value is reported as “soluble”.
For “MSLTYEKIKQLRENREITQKEISNALDINVSVYNKIELGIRPLREEELTAIADFFNVSIDYLTGRTDNPTTPSNNQKEAGQNIISHFRLNTNDLSSDDIEELEKELIDFQEFLIKRAKERKEGGSHHHHHH”, the “soluble on expression in E. coli” value was “soluble”.
With “MSLTYLIKVLELFSGVGSFSISLNTLGIEHEIVGFSETRKTATQLFCKLHNKKESENLGDVRNVSAKDLDVDLLVFGSPCQSFTRAGKQGGGLKGSDTRSALMWEAVRIMEECKPKWIVWENVPDAISRKNMPNFQNYMDELDSLNYNTYYKVLNAHELGSAQKRKRLFSISIRKDIDNGKFEFLDLTREPKHLETYLENNDEGHHHHHH” the “soluble on expression in E. coli” value was “soluble”.
With “MSLVALTEDTQANANIGRLTVQTVEIADETTAIRCLDWDRERFDIEFGLRNGTTYNSFLIKGEKIALVDTSHRKFEKLYLEIVAGLIDPNTIDYLIVSHTEPDHSGLVKDILQLAPNITIVGAKVAIQFLENMVHQPFKSLQVKSGERLDLGNGHSLEFVSAPNLHWPDTILTYDHKTGILYTCDVFGMHYCDDQTYDENFFAIEEDFKYYYDCLMGPNARSVLAALKRIENLAIKTVATGHGPLLQVHISEWLGRYKNWSLEQAKTETLVALFYAEDYGYSEHLVHILGHGCTKTGVAVELIDLNTAEPQEVRELVTQASGLVIAMPSQYSLTAQAALNTILAAVHHKQAIGLLESGGGEDEPVFPLRNKFQELGLVEAFPPILIKEAPAQTTEQLCEEAGTDIGQWLTRDRTIKQIKSINTDLEKALGRISTGLYIITTKKGEIQGAMFASWVTQASLNPLGVAIAVSKERAIESLMQVGDHFVLNVLEEDNYQGLMKHFLKRFAPGADRFAGIKTYPATDGSPILAESLAYTECEITSRMDCGDHWIIYSTVHVGRVANVHAMTAVHHRKVGNHYEGHHHHHH” the “soluble on expression in E. coli” value was “soluble”.
For “MSLVESLADLEEEKKKNILSSGNGEIDKRLGGGIPLGSLTLIEGENDTGKSVLCQQFVYGGLMSGHNIAYYTTENTIKSFLRQMESLSLDVSDFYAWGYLRVFPVHLEGIDWSTEQMRSILNLVANHIKTIRENIAIIDSLTMFTTYSTEDDVLEFLTRLKNLCDNGKTILITLHQHAFKEDTLVRIRSACDCHLFLRKEQVGDRYVSVLEVSKIRGARKTTGNIVSFEVHPGFGLKIIPVSEARAEGHHHHHH”, the “soluble on expression in E. coli” value was “soluble”.
In the case of “MSLVKIKIFVNELLTDVEENTTAYKVRDSYNNKCDVLVLNGYPIKTDMTLCENDKLTLIQKGVKPSLDELESLLIARHTPNIHNKLKKGKVAILGLGGLGSNIAISLARIGVGELLLIDYDVVEPSNLNRQQYFIDDIGKLKTDAMIENIKKINPFIKLNKRDIFLNKNNMDTIKDSDLIIEAFDDASCKAQVCNYVLINLKDKYLIASSGMAGYYDSNIITTKKIKDRFYICGDFVNEAKFGEGLMAPRVAICANHMANLATQILIDMEGHHHHHH”, the “soluble on expression in E. coli” value is reported as “soluble”.
With “MSLVNTIGFDREKYIEMQSQHIRERREALGGKLYLEMGGKLFDDMHASRVLPGFTPDNKIAMLDRIKDEVEILVCINAKDLERHKIRADLGISYEEDVLRLVDVFRDRGFLVEHVVLTQLENDNRLALAFIERLQRLGIKVSRHRVIPGYPTDMDRIVSDEGFGLNEYAETTRDLVVVTAPGPGSGKLATCLSQVYHEHKRGVAAGYAKFETFPIWNLPLEHPVNLAYEAATVDLNDANVIDHFHLAAYGEQTVNYNRDVEAFPLLKTLLERLMGESPYQSPTDMGVNMAGNCISDDAACRHASEQEIIRRYFKALVEEARTGKDSTQSDRAAVVMAKAGIKASQRVVVEPARQVEERTSLPGCAIELVDGSIITGATSDLLGCSSSMLLNALKHLAGIDDAIHLLSPESIEPIQTLKTVHLGSSNPRLHTDEVLIALSVSAATDSNAQKALDQLKNLRGCDVHTTTILGSVDEGIFRNLGVLVTSDPKFQKNKLYQKREGHHHHHH” the “soluble on expression in E. coli” value was “soluble”.
In the case of “MSLVQSAVLGFPRIGPNRELKKATEGYWNGKITVDELFKVGKDLRTQNWKLQKEAGVDIIPSNDFSFYDQVLDLSLLFNVIPDRYTKYDLSPIDTLFAMGRGLQRKATETEKAVDVTALEMVKWFDSNYHYVRPTFSKTTQFKLNGQKPVDEFLEAKELGIHTRPVLLGPVSYLFLGKADKDSLDLEPLSLLEQLLPLYTEILSKLASAGATEVQIDEPVLVLDLPANAQAAIKKAYTYFGEQSNLPKITLATYFGTVVPNLDAIKGLPVAALHVDFVRAPEQFDEVVAAIGNKQTLSVGIVDGRNIWKNDFKKSSAIVNKAIEKLGADRVVVATSSSLLHTPVDLNNETKLDAEIKGFFSFATQKLDEVVVITKNVSGQDVAAALEANAKSVESRGKSKFIHDAAVKRRVASIDEKMSTRAAPFEQRLPEQQKVFNLPLFPTTTIGSFPQTKDIRINRNKFNKGTISAEEYEKFINSEIEKVIRFQEEIGLDVLVHGEPERNDMVQYFGEQINGYAFTVNGWVQSYGSRYVRPPIIVGDLSRPKAMSVKESVYAQSITSKPVKGMLTGPITCLRWSFPRDDVDQKTQAMQLALALRDEVNDLEAAGIKVIQVDEPALREGLPLREGTERSAYYTWAAEAFRVATSGVANKTQIHSHFCYSDLDPNHIKALDADVVSIEFSKKDDANYIAEFKNYPNHIGLGLFDIHSPRIPSKDEFIAKISTILKSYPAEKFWVNPDCGLKTRGWEETRLSLTHMVEAAKYFREQYKNEGHHHHHH”, the “soluble on expression in E. coli” value is reported as “soluble”.
For “MSLVRNMTIASELGYLHVPEGVLIDLKKVDSLRDDEIVLMCTGSQGEPMAALSRMANGDHKVQVGHGDTVILASSLIPGNENAVFRIINGLTRLGARVVHGGNAKVHVSGHASAGELLYCYNVLKPKNVMPVHGEVRHLVANGALAVRTGVPADRVVLAEDGVVVDLVDGRASVVGAVPCGYVYVDGSSVGEITDAELKDRRILGEEGFVSVFAVVDSATGKVLAGPQILARGFAEDDKVFQDIQPEVVKALEDAIAGGATDTHQLQQVMRRVIGRWVSNRLRRRPMIVPVVVEAEGHHHHHH”, the “soluble on expression in E. coli” value was “soluble”.
For “MSLVSLPKLSAKIIIRLIYIYQIGISPILGHHCRFSITCSQYGINSIRNFGILKGCWKTCIRILKCHPFNKNDNTQEGHHHHHH”, the “soluble on expression in E. coli” value was “soluble”.
For “MSLWRLKFFLDFEKEEKWLEEMAWKGYQLESTTFGYTFRYTEPEDATIRIDHRVFSRKSEFINYCTLFEDSGWEHIAGNRWSGTYYFKKVNEESEDDIFSDPMSRAGKYKRLSKTEGHHHHHH”, the “soluble on expression in E. coli” value was “not soluble”.
In the case of “MSLWRSTVARAPLDARERKNLVAHVQSAQAHESAQHAELAKLRASVNVMKAAEATPRNDEAGQDSAMIPMAGPGVRIILDDANAAPADELGDKDMRKLVNAVWQSGAEAVAINGHRIGPRTAIRSAGSAITVDYVSLSRPYVVEAIGSPQKLPAELADTPGGRWMTYLRDNSSITYQVTTKDRVSVPGSKASVSHARPHREGHHHHHH”, the “soluble on expression in E. coli” value is reported as “soluble”.
With “MSLYATMESVRLQSEAQQLAEMILQSETAENYRNCYKRLQEDEEAGRIIRSFIKIKEQYEDVQRFGKYHPDYREISRKMREIKRELDLNDKVADFKRAENELQSILDEVSVEIGTAVSEHVKVPTGNPYFDGLSSCGGGCGSGGSCGCKVSEGHHHHHH” the “soluble on expression in E. coli” value was “soluble”.
